This assay has as its system A7r5 vascular smooth muscle cells. As to the kind of experiment: [Ca2+]i in A7r5 vascular smooth muscle cells (fura 2). Conditions: 400 s, n = 8. The assay is classed as cell-based. The procedure:
The spontaneously fusing L6 skeletal muscle cells [American Type Culture Collection (ATCC), Bethesda, MD] were grown in 75-cm^2 flasks in Dulbecco's modified Eagle's medium with 10% glucose (DMEM) supplemented with 5% fetal bovine serum (FBS, vol/vol), 5% calf serum supplemented iron enriched (CS, vol/vol, and antibiotics (50 U penicillin/ml and 5 μg of streptomycin/ml). Cultures were maintained in continuous passages (<20) by trypsinization (0.05% trypsin) of semiconfluent nonfused cells. A7r5 vascular smooth muscle cells (ATCC) were grown in the same conditions as for L6 cells. 3T3-L1 cells (ATCC) were grown in 100-mm dishes in DMEM containing 10% FBS and antibiotics. For differentiation of fibroblasts into adipocytes, confluent cells were incubated in DMEM-FBS containing 0.5 mM 3-isobutyl-1-methylxanthine (IBMX; Sigma, St. Louis, Mo.) and 0.25 μM dexamethasone (Dex; Sigma) for 60 h. […]
[Ca^2+]i was measured in L6, A7r5, and HEK-293 cells (Zemel et al., 1995) as previously described and in 3T3-L1 cells as described by Klip and Ramlal (1987). […] [Ca^2+]i levels were then measured fluorometrically in suspensions using dual excitation (340 and 380 nm)-single emission (510 nm) fluorometry as previously described (Zemel et al., 1995). [Ca^2+]i was then calculated by the computer in the fluorometer with the equation of Grynkiewicz et al. (1985). […]

The values below come from patent publication US6514747B2 (UT-Battelle, LLC, priority 1993, dated 2003).

B1: agouti: recombinant mouse agouti protein (131 amino acids, SEQ ID NO:2) produced with the baculovirus expression system in T. ni cells (protein, listed as Mus musculus)
chain: MDVTRLLLATLVSFLCFFTVHSHLALEETLGDDRSLRSNSSMNSLDFSSVSIVALNKKSKKISRKEAEKRKRSSKKKASMKKVARPPPPSPCVATRDSCKPPAPACCDPCASCQCRFFGSACTCRVLNPNC
Consider B1, for which the “[Ca2+]i Increase over Baseline” value is 74 ± 6 nM (5 nM Agouti) and 46 ± 9 nM (25 nM Agouti).
